# Source: patent publication US20170088605A1 (Novartis, published 2017)
# T1: BKV serotype I infectious virus (VP1) (BK virus serotype I, UniProt P03088 1-362)
# T1 sequence (looked up): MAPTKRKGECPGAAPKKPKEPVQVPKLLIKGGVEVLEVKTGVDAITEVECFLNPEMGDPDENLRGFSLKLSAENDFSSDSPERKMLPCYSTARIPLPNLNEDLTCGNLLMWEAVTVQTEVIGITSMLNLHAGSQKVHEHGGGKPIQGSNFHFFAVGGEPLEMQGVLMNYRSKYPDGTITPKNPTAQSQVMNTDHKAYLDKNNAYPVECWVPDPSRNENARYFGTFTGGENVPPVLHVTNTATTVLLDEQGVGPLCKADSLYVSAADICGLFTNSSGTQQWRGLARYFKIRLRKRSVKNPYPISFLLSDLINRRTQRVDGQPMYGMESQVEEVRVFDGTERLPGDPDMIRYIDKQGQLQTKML
# Columns and labels:
# [1] = target: T2, BKV serotype I VP1 pentamer (BK virus serotype I, UniProt P03088 30-297); test: SPR, antibody captured on Protein A
# T2 construct: also called serotype I pentamers; BKV-VP1 serotype I pentameric protein
# [2] = target: T1, BKV serotype I infectious virus (VP1); test: cell-based or functional assay
# [3] = target: BKV serotype II chimeric infectious virus (VP1 of isolate SB) (BK virus serotype II); test: cell-based or functional assay
# [4] = target: BKV serotype III chimeric infectious virus (VP1 of isolate AS) (BK virus serotype III); test: cell-based or functional assay
# [5] = target: BKV serotype IV chimeric infectious virus (VP1 of strain ITA-4) (BK virus serotype IV); test: cell-based or functional assay
binder,measurement,setting,value
"EBB-C1975-A7 (antibody, V domains shown) VH: QVQLVESGGGLVQPGGSLRLSCAASGFTVSRNYMSWVRQAPGKGLEWVSGIYSGGSTYYADSVKGRFTISRDYSKNTLSLQMNTLRVEDTAVYFCAREDEFWSGYSAGVDWGQGTLVTVSS VL: not shown",binding result,[1],no binding
same,neutralization EC50,[2],0.024 µg/mL
same,neutralization EC90,[2],5.15 µg/mL
same,neutralization EC50,[3],0.11 µg/mL
same,neutralization EC90,[3],14.2 µg/mL
same,neutralization EC50,[4],> 100 µg/mL
same,neutralization EC90,[4],> 100 µg/mL
same,neutralization EC50,[5],0.28 µg/mL
same,neutralization EC90,[5],7.79 µg/mL
